Assay results from patent US20060241051A1 (Takeda / Millennium, published 2006).
Square brackets hold non-standard residues; d marks the D form. Primed or numbered codes have the meaning given here. Ends that are not written are not given here. * marks the point of attachment. Propanoyl(3-indol-3-yl) = O=C(CCc1c[nH]c2ccccc12)*; Phe(3-Cl) = N[C@@H](Cc1cccc(Cl)c1)C(=O)O; Phe(4-Cl) = N[C@@H](Cc1ccc(Cl)cc1)C(=O)O; Phe(4-NH2) = Nc1ccc(C[C@H](N)C(=O)O)cc1; Phe(2-Cl) = N[C@@H](Cc1ccccc1Cl)C(=O)O; 1Nal = N[C@@H](Cc1cccc2ccccc12)C(=O)O; 2Nal = N[C@@H](Cc1ccc2ccccc2c1)C(=O)O; Cyclohexanecarbonyl = O=C(C1CCCCC1)*; Arg(Me) = CNC(=N)NCCC[C@H](N)C(=O)O; Diphenylacetyl′ = not defined here; d3Pal = N[C@H](Cc1cccnc1)C(=O)O; amidino = N=C(N)*; azaGly = NNC(=O)O

Key:
[1] = target: T1, human OT7T175 (metastin receptor) (human, UniProt Q969F8 1-398); test: FMAT competition with Cy-5-labeled metastin (40-54), hOT7T175-expressed CHO cells
T1 construct: expressed on CHO cells (hOT7T175-expressed CHO cells; hOT7T175/CHO); also called hOT7T175; h0T7T175
T1 sequence (Q969F8 whole entry L364H): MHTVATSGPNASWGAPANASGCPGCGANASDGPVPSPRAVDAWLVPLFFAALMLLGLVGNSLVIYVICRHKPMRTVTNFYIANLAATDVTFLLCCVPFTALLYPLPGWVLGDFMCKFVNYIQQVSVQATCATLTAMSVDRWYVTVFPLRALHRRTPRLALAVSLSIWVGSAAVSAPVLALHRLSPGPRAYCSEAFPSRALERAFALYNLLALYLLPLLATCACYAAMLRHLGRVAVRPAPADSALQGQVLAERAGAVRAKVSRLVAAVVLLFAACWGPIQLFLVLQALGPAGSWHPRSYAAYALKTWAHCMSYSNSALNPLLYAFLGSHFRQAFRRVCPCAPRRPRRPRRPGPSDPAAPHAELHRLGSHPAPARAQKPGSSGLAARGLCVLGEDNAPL
Description: h0T7T175-Expressed CHO cells were cultured in MEM-α medium (nucleic acid-free) containing 10% dialyzed serum. The medium was removed and the adherent cells were washed with PBS. Then, PBS containing 5 mM EDTA was added and the cells were scraped from a flask with a cell scraper. […] To each well of a 96-Well Black Clear Bottom Plate (Applied Biosystems, Inc.), 10 μL of assay buffer containing 1% dimethylsulfoxide was added to examine total binding, 10 μL of 10 μM non-labeled peptide (having the same amino acid sequence as that of the labeled one) solution diluted with assay buffer to examine non-specific binding, and 10 μL of a test compound diluted with assay buffer to examine the binding inhibition activity of the test compound, respectively. Furthermore, 90 μL each of the cell suspension was dispensed to each well. […] The specific binding is a value obtained by subtracting the non-specific binding from the total binding.

[2] = target: T1, human OT7T175 (metastin receptor); test: cell-based or functional assay

| Binder | IC50 [1] [nM] | intracellular Ca ion level-increasing activity (FLIPR) [2] |
| --- | --- | --- |
| {3‑Phenylpropionyl}-NSF[azaGly]L[Arg(Me)]F-NH2 [Compound No. 269: des(1-3)-3-Phenylpropionyl-[AzaGly7,Arg(Me)9]MS10] | 470 | 3 specific activity to metastin (1-54) |
| {4‑(3-Indolyl)butyryl}-NSF[azaGly]L[Arg(Me)]F-NH2 [Compound No. 267: des(1-3)-4-(3-Indolyl)butyryl-[AzaGly7,Arg(Me)9]MS10] | 360 | 2 specific activity to metastin (1-54) |
| {Indole‑3‑carbonyl}-NSF[azaGly]L[Arg(Me)]F-NH2 (also called des(1-3)-Indole-3-carboxyl-[AzaGly7,Arg(Me)9]MS10) [Compound No. 265: des(1-3)-Indole-3-carbonyl-[AzaGly7,Arg(Me)9]MS10] | 95 | 3 specific activity to metastin (1-54) |
| [dY]N[2Nal]NSF[azaGly]L[Arg(Me)]F-NH2 (N-terminus assumed; SMILES CNC(=N)NCCC[C@H](NC(=O)[C@H](CC(C)C)NC(=O)NNC(=O)[C@H](Cc1ccccc1)NC(=O)[C@H](CO)NC(=O)[C@H](CC(N)=O)NC(=O)[C@H](Cc1ccc2ccccc2c1)NC(=O)[C@H](CC(N)=O)NC(=O)[C@H](N)Cc1ccc(O)cc1)C(=O)N[C@@H](Cc1ccccc1)C(N)=O) [Compound No. 246: [D-Tyr1,Nal(2) 3,AzaGly7,Arg(Me)9]MS10] | 7.1 | 2 specific activity to metastin (1-54) |
| WNSF[azaGly]L[Arg(Me)]F-NH2 (N-terminus assumed; SMILES CNC(=N)NCCC[C@H](NC(=O)[C@H](CC(C)C)NC(=O)NNC(=O)[C@H](Cc1ccccc1)NC(=O)[C@H](CO)NC(=O)[C@H](CC(N)=O)NC(=O)[C@@H](N)Cc1c[nH]c2ccccc12)C(=O)N[C@@H](Cc1ccccc1)C(N)=O) [Compound No. 271: des(1-2)-[AzaGly7,Arg(Me)9]MS10] | 120 | 1 specific activity to metastin (1-54) |
| [dY][2Nal]NSF[azaGly]L[Arg(Me)]F-NH2 [Compound No. 255: des(1)-[D-Tyr2,Nal(2) 3,AzaGly7,Arg(Me)9]MS10] | 33 | 1 specific activity to metastin (1-54) |
| {n‑Hexanoyl}-NSF[azaGly]L[Arg(Me)]F-NH2 [Compound No. 277: des(1-3)-n-Hexanoyl-[AzaGly7,Arg(Me)9]MS10] | 54 | 2 specific activity to metastin (1-54) |
| [dY]NFNSF[azaGly]L[Arg(Me)]F-NH2 [Compound No. 244: [D-Tyr1,Phe3,AzaGly7,Arg(Me)9]MS10] | 77 | 1 specific activity to metastin (1-54) |
| [dY][dH]WNSF[azaGly]L[Arg(Me)]F-NH2 [Compound No. 288: [D-Tyr1,D-His2,AzaGly7,Arg(Me)9]MS10] | 0.072 | 1 specific activity to metastin (1-54) |
| [dY]N[Phe(4-NH2)]NSF[azaGly]L[Arg(Me)]F-NH2 [Compound No. 250: [D-Tyr1,Phe(4NH2) 3,AzaGly7,Arg(Me)9]MS10] | 3.7 | 1 specific activity to metastin (1-54) |
| [dY][dN]TNSF[azaGly]L[Arg(Me)]F-NH2 (N-terminus assumed; SMILES CNC(=N)NCCC[C@H](NC(=O)[C@H](CC(C)C)NC(=O)NNC(=O)[C@H](Cc1ccccc1)NC(=O)[C@H](CO)NC(=O)[C@H](CC(N)=O)NC(=O)[C@@H](NC(=O)[C@@H](CC(N)=O)NC(=O)[C@H](N)Cc1ccc(O)cc1)[C@@H](C)O)C(=O)N[C@@H](Cc1ccccc1)C(N)=O) [Compound No. 284: [D-Tyr1,D-Asn2,Thr3,AzaGly7,Arg(Me)9]MS10] | 34 | 1 specific activity to metastin (1-54) |
| [dY]N[Phe(2-Cl)]NSF[azaGly]L[Arg(Me)]F-NH2 [Compound No. 247: [D-Tyr1,Phe(2CL) 3,AzaGly7,Arg(Me)9]MS10] | 45 | 1 specific activity to metastin (1-54) |
| [dY][dS]WNSF[azaGly]L[Arg(Me)]F-NH2 [Compound No. 287: [D-Tyr1,D-Ser2,AzaGly7,Arg(Me)9]MS10] | 2.3 | 2 specific activity to metastin (1-54) |
| [dY]N[Phe(3-Cl)]NSF[azaGly]L[Arg(Me)]F-NH2 (N-terminus assumed; SMILES CNC(=N)NCCC[C@H](NC(=O)[C@H](CC(C)C)NC(=O)NNC(=O)[C@H](Cc1ccccc1)NC(=O)[C@H](CO)NC(=O)[C@H](CC(N)=O)NC(=O)[C@H](Cc1cccc(Cl)c1)NC(=O)[C@H](CC(N)=O)NC(=O)[C@H](N)Cc1ccc(O)cc1)C(=O)N[C@@H](Cc1ccccc1)C(N)=O) [Compound No. 248: [D-Tyr1,Phe(3Cl) 3,AzaGly7,Arg(Me)9]MS10] | 58 | 2 specific activity to metastin (1-54) |
| [dY][dN]FNSF[azaGly]L[Arg(Me)]F-NH2 [Compound No. 257: [D-Tyr1,D-Asn2,Phe3,AzaGly7,Arg(Me)9]MS10] | 40 | 3 specific activity to metastin (1-54) |
| [dY]N[Phe(4-Cl)]NSF[azaGly]L[Arg(Me)]F-NH2 [Compound No. 249: [D-Tyr1,Phe(4Cl) 3,AzaGly7,Arg(Me)9]MS10] | 150 | 1 specific activity to metastin (1-54) |
| [dA]NWNSF[azaGly]L[Arg(Me)]F-NH2 [Compound No. 259: [D-Ala1,AzaGly7,Arg(Me)9]MS10] | 250 | 1 specific activity to metastin (1-54) |
| {Propanoyl(3-indol-3-yl)}-NSF[azaGly]L[Arg(Me)]F-NH2 [Compound No. 260: des(1-3)-3-(3-Indolyl)propionyl-[AzaGly7,Arg(Me)9]MS10] | 320 | 5 specific activity to metastin (1-54) |
| Cyclohexanecarbonyl-NSF[azaGly]L[Arg(Me)]F-NH2 (SMILES CNC(=N)NCCC[C@H](NC(=O)[C@H](CC(C)C)NC(=O)NNC(=O)[C@H](Cc1ccccc1)NC(=O)[C@H](CO)NC(=O)[C@H](CC(N)=O)NC(=O)C1CCCCC1)C(=O)N[C@@H](Cc1ccccc1)C(N)=O) [Compound No. 278: des(1-3)-Cyclohexanecarbonyl-[AzaGly7, Arg(Me)9]MS10] | 110 | 2 specific activity to metastin (1-54) |
| [d3Pal]FNSF[azaGly]L[Arg(Me)]F-NH2 [Compound No. 256: des(1)-[D-Pya(3) 2,Phe3,AzaGly7,Arg(Me)9]MS10] | 22 | 1 specific activity to metastin (1-54) |
| [d3Pal]WNSF[azaGly]L[Arg(Me)]F-NH2 (N-terminus assumed; SMILES CNC(=N)NCCC[C@H](NC(=O)[C@H](CC(C)C)NC(=O)NNC(=O)[C@H](Cc1ccccc1)NC(=O)[C@H](CO)NC(=O)[C@H](CC(N)=O)NC(=O)[C@H](Cc1c[nH]c2ccccc12)NC(=O)[C@H](N)Cc1cccnc1)C(=O)N[C@@H](Cc1ccccc1)C(N)=O, also called [D-Pya(3)2,AzaGly7,Arg(Me)9]MS10-(2-10)) [Compound No. 289: des(1)-[D-Pya(3) 2,AzaGly7,Arg(Me)9]MS10] | 8.4 | 1 specific activity to metastin (1-54) |
| [dY]FNSF[azaGly]L[Arg(Me)]F-NH2 [Compound No. 254: des(1)-[D-Tyr2,Phe3,AzaGly7,Arg(Me)9]MS10] | 11 | 1 specific activity to metastin (1-54) |
| {Indole‑3‑acetyl}-NSF[azaGly]L[Arg(Me)]F-NH2 [Compound No. 266: des(1-3)-Indole-3-acetyl-[AzaGly7,Arg(Me)9]MS10] | 230 | 2 specific activity to metastin (1-54) |
| {Diphenylacetyl′}-NSF[azaGly]L[Arg(Me)]F-NH2 [Compound No. 268: des(1-3)-Diphenylacetyl-[AzaGly7,Arg(Me)9]MS10] | 550 | 1 specific activity to metastin (1-54) |
| Ac-WNSF[azaGly]L[Arg(Me)]F-NH2 (SMILES CNC(=N)NCCC[C@H](NC(=O)[C@H](CC(C)C)NC(=O)NNC(=O)[C@H](Cc1ccccc1)NC(=O)[C@H](CO)NC(=O)[C@H](CC(N)=O)NC(=O)[C@H](Cc1c[nH]c2ccccc12)NC(C)=O)C(=O)N[C@@H](Cc1ccccc1)C(N)=O) [Compound No. 272: des(1-2)-Acetyl-[AzaGly7,Arg(Me)9]MS10] | 540 | 2 specific activity to metastin (1-54) |
| [dY]NFNSFF[azaGly]L[Arg(Me)]F-NH2 (11 residues; also called Endo-Phe5a-[D-Tyr1,Phe3,AzaGly7,Arg(Me)9]MS10) [Compound No. 270: [D-Tyr1,Phe3,Ser-Phe5,AzaGly7,Arg(Me)9]MS10] | 15 | 1 specific activity to metastin (1-54) |
| [dY]N[1Nal]NSF[azaGly]L[Arg(Me)]F-NH2 (N-terminus assumed; SMILES CNC(=N)NCCC[C@H](NC(=O)[C@H](CC(C)C)NC(=O)NNC(=O)[C@H](Cc1ccccc1)NC(=O)[C@H](CO)NC(=O)[C@H](CC(N)=O)NC(=O)[C@H](Cc1cccc2ccccc12)NC(=O)[C@H](CC(N)=O)NC(=O)[C@H](N)Cc1ccc(O)cc1)C(=O)N[C@@H](Cc1ccccc1)C(N)=O) [Compound No. 245: [D-Tyr1,Nal(1)3,AzaGly7,Arg(Me)9]MS10] | 98 | 1 specific activity to metastin (1-54) |
| [d3Pal]NWNSF[azaGly]L[Arg(Me)]F-NH2 (N-terminus assumed; SMILES CNC(=N)NCCC[C@H](NC(=O)[C@H](CC(C)C)NC(=O)NNC(=O)[C@H](Cc1ccccc1)NC(=O)[C@H](CO)NC(=O)[C@H](CC(N)=O)NC(=O)[C@H](Cc1c[nH]c2ccccc12)NC(=O)[C@H](CC(N)=O)NC(=O)[C@H](N)Cc1cccnc1)C(=O)N[C@@H](Cc1ccccc1)C(N)=O) [Compound No. 258: [D-Pya(3)1,AzaGly7,Arg(Me)9]MS10] | 90 | 2 specific activity to metastin (1-54) |
| amidino-WNSF[azaGly]L[Arg(Me)]F-NH2 (SMILES CNC(=N)NCCC[C@H](NC(=O)[C@H](CC(C)C)NC(=O)NNC(=O)[C@H](Cc1ccccc1)NC(=O)[C@H](CO)NC(=O)[C@H](CC(N)=O)NC(=O)[C@H](Cc1c[nH]c2ccccc12)NC(=N)N)C(=O)N[C@@H](Cc1ccccc1)C(N)=O) [Compound No. 273: des(1-2)-Amidino-[AzaGly7,Arg(Me)9]MS10] | 300 | 5 specific activity to metastin (1-54) |
